Measured values from patent US20190309079A1 (Regeneron, published 2019).
Positions count from the first letter of the chain named.

Tests used:
[1] = target: T1, LEPR-A409E (signaling-defective mutant) on HEK293 reporter cells (human, UniProt P48357 22-1165); experiment: cell-based or functional assay
T1 sequence: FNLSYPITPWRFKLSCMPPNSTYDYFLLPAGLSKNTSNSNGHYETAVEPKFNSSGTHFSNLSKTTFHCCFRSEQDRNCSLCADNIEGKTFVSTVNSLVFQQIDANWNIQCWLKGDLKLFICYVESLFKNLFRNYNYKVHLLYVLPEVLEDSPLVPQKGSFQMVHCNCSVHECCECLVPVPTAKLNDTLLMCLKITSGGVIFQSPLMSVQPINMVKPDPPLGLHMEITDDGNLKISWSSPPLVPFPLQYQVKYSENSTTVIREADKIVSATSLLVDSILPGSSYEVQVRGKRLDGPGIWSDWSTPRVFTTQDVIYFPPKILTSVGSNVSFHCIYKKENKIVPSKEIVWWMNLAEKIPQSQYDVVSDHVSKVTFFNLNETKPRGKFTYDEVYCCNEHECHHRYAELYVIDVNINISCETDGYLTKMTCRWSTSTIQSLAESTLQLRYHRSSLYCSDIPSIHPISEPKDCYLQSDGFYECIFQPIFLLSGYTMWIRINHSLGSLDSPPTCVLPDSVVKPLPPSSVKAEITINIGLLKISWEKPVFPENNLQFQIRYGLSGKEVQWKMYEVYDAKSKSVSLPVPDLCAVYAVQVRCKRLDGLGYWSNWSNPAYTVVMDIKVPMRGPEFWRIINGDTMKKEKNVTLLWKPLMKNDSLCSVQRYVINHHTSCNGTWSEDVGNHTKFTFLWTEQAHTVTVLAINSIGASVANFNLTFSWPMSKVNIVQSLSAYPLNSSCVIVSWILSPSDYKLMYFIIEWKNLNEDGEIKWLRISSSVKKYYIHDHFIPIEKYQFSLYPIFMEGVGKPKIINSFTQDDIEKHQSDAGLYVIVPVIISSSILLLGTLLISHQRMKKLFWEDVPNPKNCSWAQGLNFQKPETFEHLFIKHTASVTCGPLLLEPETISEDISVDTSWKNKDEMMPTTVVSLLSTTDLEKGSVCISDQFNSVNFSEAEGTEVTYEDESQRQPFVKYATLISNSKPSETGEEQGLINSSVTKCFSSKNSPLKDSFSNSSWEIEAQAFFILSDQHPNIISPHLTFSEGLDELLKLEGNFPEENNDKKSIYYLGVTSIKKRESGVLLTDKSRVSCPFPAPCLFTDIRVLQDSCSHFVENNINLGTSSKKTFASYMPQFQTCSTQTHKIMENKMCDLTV

[2] = target: T2, LEPR-P316T (signaling-impaired mutant) on HEK293 reporter cells (human, UniProt P48357 22-1165); experiment: cell-based or functional assay
T2 sequence: T1 sequence with P295T, E388A

B1: H4H16679P2 (antibody, V domains shown)
VH: QVQLVESGGGVVQPGRSLRLSCTASGFTFSSYAMYWVRQAPGKGLEWVSVIYYDGSYKYYADSVKGRFTISRDNSKNTLYLQMDSLRAEDTAVYYCASYNWNYWYFDFWGRGTLVTVSS
VL: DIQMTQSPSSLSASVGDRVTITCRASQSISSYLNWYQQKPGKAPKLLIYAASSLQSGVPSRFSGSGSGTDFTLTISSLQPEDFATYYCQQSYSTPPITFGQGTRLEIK
B1 was tested, and the “EC50 (read off the curve), pSTAT3 Y705/STAT3 densitometry” value [1] was roughly 6e-10 M and the “EC50 (read off the curve), pSTAT3 Y705/STAT3 densitometry” value [2] was roughly 3e-10 M.
